Experimental data reported in US20110177600A1 (published 2011).

B1: anti-diphtheria toxin antibody expressed in DG44 cells (antibody, human IgG1, kappa, V domains shown)
VH: EVQLVESGGGLVKPGGSLRLSCEASGFIFSDYYMSWIRQAPGKGLEWISYISPSGSTLYYADSMRGRFTISRDNAKNSLYLQMNSLRVEDTAVYFCAREYPTTSKVAITPNWFDLWGQGTLVTVSS
VL: ETTLTQSPATLSLSPGERATLSCRASQSVSTFLAWYQQKPGQAPRLLIYDASNRATGIPARFSGSGSGTDFTLTISSLEPEDFAVYYCQQRNIWPSFGGGTKVDIKR
B2: anti-diphtheria toxin antibody expressed in PER.C6 cells (antibody, human IgG1, kappa, V domains shown)
VH: B1 VH
VL: B1 VL

Target: diphtheria toxin (UniProt P00588 33-567)
Assay: cell-based or functional assay

diphtheria toxin, sequence (P00588 33-567 limits assumed): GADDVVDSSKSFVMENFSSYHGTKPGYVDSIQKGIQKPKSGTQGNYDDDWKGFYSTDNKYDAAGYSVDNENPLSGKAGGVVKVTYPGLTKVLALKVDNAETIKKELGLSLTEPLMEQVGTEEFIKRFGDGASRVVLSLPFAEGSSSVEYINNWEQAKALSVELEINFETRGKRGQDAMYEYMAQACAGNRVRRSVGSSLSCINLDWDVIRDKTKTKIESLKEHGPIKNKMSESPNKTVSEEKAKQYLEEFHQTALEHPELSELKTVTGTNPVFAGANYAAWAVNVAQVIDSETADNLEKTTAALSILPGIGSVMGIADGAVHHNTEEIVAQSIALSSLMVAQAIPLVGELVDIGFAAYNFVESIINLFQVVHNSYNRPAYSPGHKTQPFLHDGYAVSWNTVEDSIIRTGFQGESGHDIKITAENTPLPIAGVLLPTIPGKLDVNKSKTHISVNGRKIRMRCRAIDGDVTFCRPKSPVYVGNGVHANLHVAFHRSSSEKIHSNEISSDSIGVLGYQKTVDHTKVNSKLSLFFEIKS

Binder | EC50 for protecting Jurkat cells from killing by diphtheria toxin (3H-thymidine incorporation)
B1 | 8 ng/mL
B2 | 11 ng/mL
